# Data as given in the supplement of paper PMC10126150.
# ± gives the standard deviation of the averaged measurements.
# System: ATP
# Test: switch fluorescence ratio, 500 uM ATP over buffer (Cy3 cluster intensity, sum of 5 cycles each) (fold (ratio)); higher = stronger signal-on switching upon ATP binding; sequences stand for … in TCGTCGGCAGCGTCAGATGTGTATAAGAGACAGTTTTTTTTTTTTTTTTTTTTTTTTT…TC
# Conditions: aptamer strand: ATP DNA aptamer (quencher-CACCTGGGGGAGTATTGCGGAGGAAGG + anchor), 100 nM annealed; ATP concentration: 500 uM
# Method in brief: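 Exposure to 500 uM ATP lasted 15 min at 22 °C before imaging, and a selection-buffer image was taken beforehand, for Cy3-labelled switching-strand clusters on a modified Illumina MiSeq flow-cell annealed to 100 nM quencher-labelled ATP aptamer. Five buffer/ATP cycles were run with NaOH stripping and re-annealing between them. The fluorescence ratio per cluster is summed target-cycle over summed buffer-cycle Cy3 intensity, averaged per switch-domain sequence. Clusters outside 100-1000 RFU were excluded.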
sequence,measurement,value
ACAAAACGTT,switch fluorescence ratio,1.028 ± 0.0078
ACAGGGGGAG,switch fluorescence ratio,0.983 ± 0.024
TGAGTATGGG,switch fluorescence ratio,0.973 ± 0.019
TATGAGTAGG,switch fluorescence ratio,0.995 ± 0.015
CCTCGGCGGT,switch fluorescence ratio,2.47 ± 1.7
TTGGGGTGAA,switch fluorescence ratio,1.1 ± 0.14
GCACGGGCAT,switch fluorescence ratio,1.01 ± 0.035
TCGGGGGCGA,switch fluorescence ratio,1.13 ± 0.17
TTTTCTTCTT,switch fluorescence ratio,1.02 ± 0.068
ATTTACTATA,switch fluorescence ratio,1.07 ± 0.0053
ACGGCTGTGC,switch fluorescence ratio,1.02 ± 0.013
TGCGGGCGGC,switch fluorescence ratio,0.98 ± 0.024
ATATTATTGA,switch fluorescence ratio,0.9818 ± 0.0049
ATTTTAGGAC,switch fluorescence ratio,1.03 ± 0.025
ATGAGGGGTA,switch fluorescence ratio,1.01 ± 0.026
GTTAGGTAGG,switch fluorescence ratio,0.9818 ± 0.005
CGGGTAACTT,switch fluorescence ratio,1.02 ± 0.046
ATGTGAATTG,switch fluorescence ratio,1.01 ± 0.019
CGTAGGAAAA,switch fluorescence ratio,0.98 ± 0.096
GTGGTAAGAT,switch fluorescence ratio,0.991 ± 0.037
TTGAGCTTAT,switch fluorescence ratio,0.993 ± 0.018
GAGCCACCAC,switch fluorescence ratio,1.051 ± 0.002
AGAGGAGAAT,switch fluorescence ratio,0.993 ± 0.0021
AGTTTCTGAG,switch fluorescence ratio,1.01 ± 0.056
GCGGGAGTTT,switch fluorescence ratio,0.9667 ± 0.0015
TAAGGATTAT,switch fluorescence ratio,1.008 ± 0.0024
ACGGTGAATG,switch fluorescence ratio,1 ± 0.038
CCTGGGCCTT,switch fluorescence ratio,1.01 ± 0.025
GGACGCATGG,switch fluorescence ratio,1.33 ± 0.071
GTGTTTGACA,switch fluorescence ratio,0.9604 ± 0.005
CTGAGGGGAT,switch fluorescence ratio,1.1 ± 0.047
GACGTTTTGC,switch fluorescence ratio,1.073 ± 0.0083
ATTTCTCTCT,switch fluorescence ratio,0.993 ± 0.014
TTGCAGCTTA,switch fluorescence ratio,1.05 ± 0.035
GCGTCCGCTG,switch fluorescence ratio,1.22 ± 0.039
TTCGGTATAG,switch fluorescence ratio,1 ± 0.025
TGTCTGCTTT,switch fluorescence ratio,0.997 ± 0.043
TAATGTGGGG,switch fluorescence ratio,0.9715 ± 0.0056
GATTGAAAGC,switch fluorescence ratio,0.962 ± 0.045
TGACCTCGTG,switch fluorescence ratio,0.995 ± 0.039
GGGGCTATCC,switch fluorescence ratio,1.01 ± 0.036
TGGTTAGTTT,switch fluorescence ratio,0.997 ± 0.016
AATGGTTCGG,switch fluorescence ratio,0.962 ± 0.036
CGCTGACCTT,switch fluorescence ratio,1.2 ± 0.037
GCTGATGCGT,switch fluorescence ratio,1.01 ± 0.038
TGCGGAATAT,switch fluorescence ratio,1.14 ± 0.064
TGGTGGTTTT,switch fluorescence ratio,1.03 ± 0.025
TCTTTTGGTG,switch fluorescence ratio,1.03 ± 0.019
AAAAGTATAA,switch fluorescence ratio,1.03 ± 0.036
TGGAGCGAGG,switch fluorescence ratio,1.02 ± 0.00015
CACAGTGGTA,switch fluorescence ratio,1.03 ± 0.058
TTCTAACCCC,switch fluorescence ratio,1.12 ± 0.012
GCGATTGAGC,switch fluorescence ratio,0.9808 ± 0.004
GGGTGTTCGT,switch fluorescence ratio,1.004 ± 0.0028
CTACCGGATT,switch fluorescence ratio,1.07 ± 0.012
GGAATATGTG,switch fluorescence ratio,0.998 ± 0.0093
TGTCACAGTT,switch fluorescence ratio,1.01 ± 0.013
AGGGTACTGC,switch fluorescence ratio,1.02 ± 0.039
TTTCGGGTTG,switch fluorescence ratio,1.02 ± 0.042
GGGTCTCGAG,switch fluorescence ratio,0.9866 ± 0.0096
AGTAAGAGCA,switch fluorescence ratio,1.01 ± 0.011
CCCAGGACGC,switch fluorescence ratio,1.397 ± 0.0036
GGTGTCTGGG,switch fluorescence ratio,0.984 ± 0.074
GGATAGGTAC,switch fluorescence ratio,1.05 ± 0.04
TGTTGGTATG,switch fluorescence ratio,0.976 ± 0.038
CCTCATGCCA,switch fluorescence ratio,2.3 ± 0.11
GGTTGGTTGG,switch fluorescence ratio,0.9769 ± 0.0012
TATTTAGCGT,switch fluorescence ratio,1.01 ± 0.067
GATAAATCGG,switch fluorescence ratio,0.981 ± 0.024
GGTTAGGCGG,switch fluorescence ratio,0.954 ± 0.015
CGGGGTACGG,switch fluorescence ratio,1.01 ± 0.017
ATTTAGGGAT,switch fluorescence ratio,1.02 ± 0.051
TTTTATCTTG,switch fluorescence ratio,1.03 ± 0.017
CGTGTCACTT,switch fluorescence ratio,1.01 ± 0.023
GACCTTTCGT,switch fluorescence ratio,1.1 ± 0.069
TATAACATG,switch fluorescence ratio,1.009 ± 0.0025
GGGTTTAATC,switch fluorescence ratio,1.08 ± 0.077
GATGTAACTT,switch fluorescence ratio,1.012 ± 0.0061
ACGAAGGGGT,switch fluorescence ratio,1.03 ± 0.021
CGGCGGGAAG,switch fluorescence ratio,1 ± 0.023
AGTAATACGG,switch fluorescence ratio,1.3 ± 0.29
ACATTGTGTA,switch fluorescence ratio,0.9955 ± 0.0068
TATAGGGAGC,switch fluorescence ratio,0.947 ± 0.017
TTATACATT,switch fluorescence ratio,1.02 ± 0.075
TTTTACTGTT,switch fluorescence ratio,1.12 ± 0.096
GGGTTTGTTA,switch fluorescence ratio,1 ± 0.018
GGCCCCAAAT,switch fluorescence ratio,0.9817 ± 0.0041
TAGTTTGGCT,switch fluorescence ratio,1.02 ± 0.047
TTAGTTTCTA,switch fluorescence ratio,0.99394 ± 0.00081
TGGAAATAGG,switch fluorescence ratio,0.981 ± 0.039
GTGAGTGTCA,switch fluorescence ratio,1 ± 0.03
GCCGGGGGGG,switch fluorescence ratio,1.02 ± 0.02
TGTGATTTCG,switch fluorescence ratio,0.945 ± 0.048
ACGGTGAACC,switch fluorescence ratio,0.989 ± 0.06
GACTTGGGTG,switch fluorescence ratio,1.02 ± 0.038
AATTAGCCAT,switch fluorescence ratio,0.987 ± 0.011
AGGTTAGTTT,switch fluorescence ratio,0.985 ± 0.018
AACCATGGGT,switch fluorescence ratio,1.01 ± 0.03
GGTTATTGAG,switch fluorescence ratio,0.9799 ± 0.0044
GGGGGGCACC,switch fluorescence ratio,0.994 ± 0.021
TGGAGTGTTT,switch fluorescence ratio,0.94 ± 0.021
ATGCGGTATG,switch fluorescence ratio,1 ± 0.0024
AAATGGGACC,switch fluorescence ratio,1.012 ± 0.0042
CGCGAACATG,switch fluorescence ratio,0.984 ± 0.049
CCTGTGTAGC,switch fluorescence ratio,1.092 ± 0.0031
CGGTTGGCCA,switch fluorescence ratio,1 ± 0.018
GGACTCGCTC,switch fluorescence ratio,1.02 ± 0.018
CGGGAAGCTT,switch fluorescence ratio,1 ± 0.082
GAGTCTGTGC,switch fluorescence ratio,1.02 ± 0.043
GGTATTCGGC,switch fluorescence ratio,1.01 ± 0.017
TTTTTGTGTT,switch fluorescence ratio,1 ± 0.025
TTGATCTTAG,switch fluorescence ratio,1.02 ± 0.018
AAATGAGTAG,switch fluorescence ratio,1.02 ± 0.013
TTTATCGTTG,switch fluorescence ratio,0.998 ± 0.025
TCAGGCGGC,switch fluorescence ratio,0.992 ± 0.017
TTGGGTAAGG,switch fluorescence ratio,0.993 ± 0.029
GGGGGAAATG,switch fluorescence ratio,0.994 ± 0.029
GTTATGGGGG,switch fluorescence ratio,1.04 ± 0.013
GGGCCAACGA,switch fluorescence ratio,1.042 ± 0.0014
GGGGGGTTAC,switch fluorescence ratio,1.42 ± 1
AACCAATCGA,switch fluorescence ratio,1.04 ± 0.05
GGACGATGGT,switch fluorescence ratio,1 ± 0.026
GCTACCCATC,switch fluorescence ratio,1.1 ± 0.05
CGGATTCGTA,switch fluorescence ratio,0.986 ± 0.036
TTAGGAAGGG,switch fluorescence ratio,0.956 ± 0.035
TTATAAAGAT,switch fluorescence ratio,0.992 ± 0.035
GGGAATCGTA,switch fluorescence ratio,1.04 ± 0.015
GAGGTTTTAT,switch fluorescence ratio,0.987 ± 0.054
GGCCGGCAAC,switch fluorescence ratio,0.9996 ± 0.0039
AGGTGTTGCG,switch fluorescence ratio,1.016 ± 0.0056
TATGTTTTTA,switch fluorescence ratio,1.02 ± 0.019
TAGATATCTG,switch fluorescence ratio,0.974 ± 0.0098
TTTACAAGT,switch fluorescence ratio,0.982 ± 0.035
GCATTGTGCC,switch fluorescence ratio,1.02 ± 0.022
CCCCGTAGTC,switch fluorescence ratio,4.6 ± 0.3
ACATAGAACG,switch fluorescence ratio,1.06 ± 0.038
GGGTTTGGCT,switch fluorescence ratio,1.01 ± 0.029
GAGCGATGTC,switch fluorescence ratio,1.07 ± 0.035
GCCGCTGATG,switch fluorescence ratio,0.982 ± 0.028
TGGCCATAGG,switch fluorescence ratio,0.999 ± 0.041
TAGGCGTAGG,switch fluorescence ratio,0.9876 ± 0.0018
TGTTTCCCGT,switch fluorescence ratio,1 ± 0.022
TGCTTCTAAT,switch fluorescence ratio,1.02 ± 0.021
TATTTCATTG,switch fluorescence ratio,1.02 ± 0.03
ATAGTCTACG,switch fluorescence ratio,1.02 ± 0.042
GGGTGAGCTG,switch fluorescence ratio,0.98 ± 0.04
GTTTCATGGG,switch fluorescence ratio,0.9685 ± 0.0041
AATTTATTTT,switch fluorescence ratio,0.991 ± 0.026
GTTGAAAAGG,switch fluorescence ratio,0.971 ± 0.051
TATTAACCTG,switch fluorescence ratio,1.03 ± 0.022
TCGATCGCTA,switch fluorescence ratio,1.43 ± 0.59
AACTCCAGTA,switch fluorescence ratio,1.008 ± 0.005
ACGGGACGGA,switch fluorescence ratio,1.034 ± 0.0065
